Data set [1] can be described thus: NBD-PS uptake in yeast, flow cytometry. The conditions noted are these: glycan lost; control: wild-type ALIS5 with ALA2. Background: Flow cytometry measures light scatter and fluorescence of single cells or particles in a stream.
Data set [2] can be described thus: confocal microscopy of GFP–ALA2 in tobacco epidermal cells. The conditions noted are these: glycan lost; control: untagged wild-type ALIS5 with GFP–ALA2.

B1: ALIS5: N181Q (protein)
parent chain: MSSTAASSTVGGGGSSEISGVKKTSKRPKYSRFTQQELPACKPILTPRWVILTFLVAGVVFIPLGVICLFASQGVVEIVDRYDTDCIPTSSRNNMVAYIQGEGDKICKRTITVTKAMKHPVYVYYQLENFYQNHRRYVKSRNDAQLRSPKEEHDVKTCAPEDNVGGEPIVPCGLVAWSLFNDTYSFSRNSQQLLVNKKGISWKSDRENKFGKNVFPKNFQKGAPIGGGTLNISKPLSEQEDLIVWMRTAALPTFRKLYGKIETDLHAGDTITVLLQNNYNTYSFNGQKKLVLSTTSWLGGRNDFLGIAYLTVGSICLFLAVTFAVLYLVKPRQLGDPSYLSWNRSAGGLQ
On to B1, for which, in data set [1], the “other: transport activity” value was “abolishes”. Further, in data set [2], the localisation_or_trafficking entry is “abolishes”.

B2: ALIS5: N231Q/N181Q (protein)
parent chain: MSSTAASSTVGGGGSSEISGVKKTSKRPKYSRFTQQELPACKPILTPRWVILTFLVAGVVFIPLGVICLFASQGVVEIVDRYDTDCIPTSSRNNMVAYIQGEGDKICKRTITVTKAMKHPVYVYYQLENFYQNHRRYVKSRNDAQLRSPKEEHDVKTCAPEDNVGGEPIVPCGLVAWSLFNDTYSFSRNSQQLLVNKKGISWKSDRENKFGKNVFPKNFQKGAPIGGGTLNISKPLSEQEDLIVWMRTAALPTFRKLYGKIETDLHAGDTITVLLQNNYNTYSFNGQKKLVLSTTSWLGGRNDFLGIAYLTVGSICLFLAVTFAVLYLVKPRQLGDPSYLSWNRSAGGLQ
For the protein B2, the “other: transport activity” value in data set [1] was “abolishes”. For the same protein, the localisation_or_trafficking entry in data set [2] is listed as “abolishes”.
